Measured values taken from patent publication US20180362631A1 (Eli Lilly, published 2018).

Key:
[1] = molecular target: human CXCL8 point mutant A35P (human, UniProt P10145 28-99, limits assumed); test: SPR (Biacore 2000), antibody captured on Protein A, CXCL8 variant as analyte, 25 C
Protocol: (§1) Binding kinetics are tested on a Biacore 2000 instrument with Biacore 2000 Evaluation Software Version 4.1 as described above.
(§2) The on-rate (kₒₙ) and off-rate (koff) for each ligand are evaluated using a “1:1 (mass transfer) Binding” binding model. The affinity (KD) is calculated from the binding kinetics according to the relationship: KD=koff/kₒₙ.

[2] = molecular target: human CXCL8 point mutant I40A (human, UniProt P10145 28-99, limits assumed); test: as above
Protocol: as §1, §2

human CXCL8 (IL-8) [3] = molecular target: T1, human CXCL8 (IL-8) (human, UniProt P10145 28-99); test: as above
T1 construct: also called human IL-8; CXCL8 (72)
T1 sequence: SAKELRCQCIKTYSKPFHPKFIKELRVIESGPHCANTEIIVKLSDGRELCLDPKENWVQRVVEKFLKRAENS
Protocol: as §1, §2

[4] = molecular target: human CXCL8 point mutant I10A (human, UniProt P10145 28-99, limits assumed); test: as above
Protocol: as §1, §2

[5] = molecular target: T2, human CXCL8 point mutant L49A (human, UniProt P10145 28-99, limits assumed); test: as above
Protocol: as §1, §2

human CXCL8 (IL-8) [6] = molecular target: T1, human CXCL8 (IL-8); test: cell-based or functional assay
[7] = molecular target: T2, human CXCL8 point mutant L49A; test: cell-based or functional assay
[8] = molecular target: human CXCL8 point mutant R6A (human, UniProt P10145 28-99, limits assumed); test: SPR (Biacore 2000), antibody captured on Protein A
human CXCL1 (Gro alpha) [9] = molecular target: T3, human CXCL1 (Gro alpha) (human, UniProt P09341 35-107); test: SPR (Biacore 2000), antibody captured on Protein A, chemokine as analyte, 25 C
T3 construct: also called human Gro-alpha
T3 sequence: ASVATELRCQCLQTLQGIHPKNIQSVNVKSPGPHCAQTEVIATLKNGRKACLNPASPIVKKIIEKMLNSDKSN
Protocol: (§3) Biacore 2000 instrument and Biacore 2000 Evaluation Software Version 4.1 are used for surface plasmon resonance analysis. A […] chip is prepared using manufacturer's EDC/NHS amine coupling method. Briefly, the surfaces of all four flow cells are activated by injecting a 1:1 mixture of EDC/NHS for 7 minutes at 10 μL/min. Protein A is diluted to 100 μg/mL in 10 mM acetate, pH 4.5 buffer, and immobilized to achieve approximately 10,000 RU onto all 4 flow cells by 7-minute injection at a flow rate of 10 μL/minute. Unreacted sites are blocked with a 7-minute injection of ethanolamine at 10 μL/minute. Two injections of glycine (pH 1.5) for 30 seconds at 10 μL/minute are used to remove any non-covalently associated protein. Running buffer is HBS-EP+.
(§4) Antibody 1 or Antibody 2 is diluted to 2 μg/mL in running buffer, and approximately 400-600 RU is captured in flow cell (Fc). Ligands are diluted from 100 μg/mL to 50 nM in running buffer and then two-fold serially diluted in running buffer to 3.125 nM. Duplicate injections of each ligand concentration are injected at 100 μL/min for 150 seconds followed by a dissociation phase. The dissociation phase is 1800 seconds for all ligands. Regeneration is performed by injecting 10 mM glycine (pH 1.5) for 60 seconds at […] over all flow cells. Reference-subtracted data is collected as Fc2-Fc1, Fc3-Fc1, and Fc4-Fc1. The measurements are obtained at 25° C. The on-rate (kₒₙ) and off-rate (koff) for each ligand are evaluated using a “1:1 (mass transfer) Binding” binding model. The affinity […] is calculated from the binding kinetics according to the relationship: KD=koff/kₒₙ.

human CXCL5 (ENA-78) = molecular target: T4, human CXCL5 (ENA-78) (human, UniProt P42830 41-114); test: as above
T4 construct: also called human ENA-78
T4 sequence: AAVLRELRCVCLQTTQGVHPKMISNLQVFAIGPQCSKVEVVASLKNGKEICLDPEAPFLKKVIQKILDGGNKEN
Protocol: as §3, §4

human CXCL7 (NAP-2) = molecular target: T5, human CXCL7 (NAP-2) (human, UniProt P02775 59-128); test: as above
T5 construct: also called human NAP-2
T5 sequence: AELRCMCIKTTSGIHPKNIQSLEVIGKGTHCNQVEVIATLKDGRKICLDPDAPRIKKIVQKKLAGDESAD
Protocol: as §3, §4

human CXCL6 (GCP-2) = molecular target: T6, human CXCL6 (GCP-2) (human, UniProt P80162 40-114); test: as above
T6 construct: also called human GCP-2
T6 sequence: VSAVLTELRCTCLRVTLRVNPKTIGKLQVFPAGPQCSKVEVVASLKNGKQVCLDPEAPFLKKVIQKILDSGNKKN
Protocol: as §3, §4

human CXCL2 (Gro beta) = molecular target: T7, human CXCL2 (Gro beta) (human, UniProt P19875 35-107); test: as above
T7 construct: also called human Gro-beta
T7 sequence: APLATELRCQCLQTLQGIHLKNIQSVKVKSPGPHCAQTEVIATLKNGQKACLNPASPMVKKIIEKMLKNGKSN
Protocol: as §3, §4

human CXCL3 (Gro gamma) = molecular target: T8, human CXCL3 (Gro gamma) (human, UniProt P19876 35-107); test: as above
T8 construct: also called human Gro-gamma
T8 sequence: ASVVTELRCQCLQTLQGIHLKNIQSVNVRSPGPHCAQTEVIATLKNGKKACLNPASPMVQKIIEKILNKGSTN
Protocol: as §3, §4

human CXCL8 (IL-8) [10] = molecular target: T1, human CXCL8 (IL-8); test: as above
Protocol: as §3, §4

human CXCL1 (Gro alpha) [11] = molecular target: T3, human CXCL1 (Gro alpha); test: cell-based or functional assay
human CXCL8 (IL-8) [12] = molecular target: T1, human CXCL8 (IL-8); test: cell-based or functional assay; remark: listed apart in the source

B1: Antibody 1 (antibody, human IgG4 S228P, kappa, V domains shown)
VH: QVQLVQSGAEVKKPGASVKVSCKASGYEFTSYWIHWVRQAPGQGLEWMGNISPNSGSANYNEKFKSRVTMTRDTSTSTVYMELSSLRSEDTAVYYCAREGPYSYYPSREYYGSDLWGQGTLVTVSS
VL: EIVLTQSPATLSLSPGERATLSCRASQSISNNLHWYQQKPGQAPRLLIYYTSRSVSGIPARFSGSGSGTDFTLTISSLEPEDFAVYYCGQNNEWPEVFGGGTKVEIKR
notes: Full-length IgG4 antibody expressed in NS0 cells
[1]
  Kd: 4.74 nM
  koff: 0.00497 s⁻¹
  kon: 1.06e+06 M⁻¹ s⁻¹
[2]
  Kd: 27.1 nM
  koff: 0.000424 s⁻¹
  kon: 16100 M⁻¹ s⁻¹
Human CXCL8 (IL-8) [3]
  Kd: 0.236 nM
  koff: 0.000441 s⁻¹
  kon: 3.03e+06 M⁻¹ s⁻¹
[4]
  Kd: 1.26 nM
  koff: 0.000344 s⁻¹
  kon: 277000 M⁻¹ s⁻¹
[5]
  Kd: 3.83 nM
  koff: 0.000544 s⁻¹
  kon: 143000 M⁻¹ s⁻¹
Human CXCL8 (IL-8) [6]
  IC50 (U937 FLIPR neutralization): 0.9 µg/mL
[7]
  IC50 (U937 FLIPR neutralization): 1.5 µg/mL
[8]
  binding result: no binding
Human CXCL1 (Gro alpha) [9]
  Kd: 0.113 nM
  koff: 0.000105 s⁻¹
  kon: 930000 M⁻¹ s⁻¹
Human CXCL5 (ENA-78)
  Kd: 0.226 nM
  koff: 0.000122 s⁻¹
  kon: 543000 M⁻¹ s⁻¹
Human CXCL7 (NAP-2)
  Kd: 0.181 nM
  koff: 0.000161 s⁻¹
  kon: 900000 M⁻¹ s⁻¹
Human CXCL6 (GCP-2)
  Kd: 0.818 nM
  koff: 0.000578 s⁻¹
  kon: 707000 M⁻¹ s⁻¹
Human CXCL2 (Gro beta)
  Kd: 0.171 nM
  koff: 0.000131 s⁻¹
  kon: 773000 M⁻¹ s⁻¹
Human CXCL3 (Gro gamma)
  Kd: 0.172 nM
  koff: 0.000123 s⁻¹
  kon: 716000 M⁻¹ s⁻¹
Human CXCL8 (IL-8) [10]
  Kd: 0.384 nM
  koff: 0.00013 s⁻¹
  kon: 339000 M⁻¹ s⁻¹
Human CXCL1 (Gro alpha) [11]
  IC50, chemotaxis of primary human neutrophils, CXCL1 at 5 nM: 18.5 nM
  IC50, chemotaxis of primary human neutrophils, CXCL1 at 20 nM: 40.3 nM
Human CXCL8 (IL-8) [12]
  IC50, chemotaxis of primary human neutrophils, CXCL8 at 5 nM: 26.4 nM
  IC50, chemotaxis of primary human neutrophils, CXCL8 at 10 nM: 43.7 nM

B2: Antibody 2 (antibody, human IgG4 S228P, kappa, V domains shown)
VH: QVQLVQSGAEVKKPGASVKVSCKASGYEFTSYWIHWVRQAPGQGLEWMGNISPNSGSANYNEKFKSRVTMTRDTSTSTVYMELSSLRSEDTAVYYCAREGPYSYYPSRQYYGSDLWGQGTLVTVSS
VL: EIVLTQSPATLSLSPGERATLSCRASQSISNNLHWYQQKPGQAPRLLIYYTSRSVSGIPARFSGSGSGTDFTLTISSLEPEDFAVYYCGQNNEWPEVFGGGTKVEIKR
notes: as for B1
Human CXCL1 (Gro alpha) [9]
  Kd: 0.243 nM
  koff: 0.000153 s⁻¹
  kon: 628000 M⁻¹ s⁻¹
Human CXCL5 (ENA-78)
  Kd: 0.354 nM
  koff: 0.000151 s⁻¹
  kon: 427000 M⁻¹ s⁻¹
Human CXCL7 (NAP-2)
  Kd: 0.418 nM
  koff: 0.000218 s⁻¹
  kon: 521000 M⁻¹ s⁻¹
Human CXCL6 (GCP-2)
  Kd: 0.849 nM
  koff: 0.000611 s⁻¹
  kon: 719000 M⁻¹ s⁻¹
Human CXCL2 (Gro beta)
  Kd: 0.18 nM
  koff: 2.05e-05 s⁻¹
  kon: 114000 M⁻¹ s⁻¹
Human CXCL3 (Gro gamma)
  Kd: 0.379 nM
  koff: 0.000176 s⁻¹
  kon: 465000 M⁻¹ s⁻¹
Human CXCL8 (IL-8) [10]
  Kd: 0.473 nM
  koff: 0.000124 s⁻¹
  kon: 261000 M⁻¹ s⁻¹
